System: K562 CRISPRi cells
Experiment: Constant region variant library pooled growth screen, K562
Format: cell-based, human
Method in brief: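 Pooled library transduced into K562 CRISPRi cells in duplicate, puromycin-selected, grown at >2000× coverage and sampled after 4 to 8 days. Phenotypes per targeting sequence:constant region pair were normalized to the unmodified-scaffold pairing to give relative activity.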

[1] = sgRNA constant region variant, activity relative to unmodified constant region cr995, mean CRISPRi activity
[2] = sgRNA constant region variants, activity relative to the original, un-modified constant region cr995

Molecule | Mean relative activity [1] | Mean relative activity [2]
cr114 (nucleic acid, listed as DNA, chemistry not fully specified) guide: GTTTAAGAGCTAAGCTGGAAACAGCATAGCAAGTTTAAATAATGTTAATCAGTTATCAACTTGAAAAAGTGGCCCCGAGTCGGGGCT | 0.008589 | –
cr272 (nucleic acid, listed as DNA, chemistry not fully specified) guide: GTTTAAGAGCTAAGCTGGAAACAGCATAGCCACTTTAAATAAGGCTAGTCCGTTATCAACTTGAAAAAGTGGCACCGAGTCGGTGCT | 0.00638 | –
cr862 (nucleic acid, listed as DNA, chemistry not fully specified) guide: GTTTAAGAGCTAAGCTGGAAACAGCATATCACCTTTAAATAAGGCTAGTCCGTTATCAACTTGAAAAAGTGGCACCGAGTCGGTGCT | 0.007887 | –
cr706 (nucleic acid, listed as DNA, chemistry not fully specified) guide: GTTTAAGAGCTAAGCTGGAAACAGCATAGCAAGGTTAAATAAGGCTAGTCCGTTATCAACTTGAAAAAGTGGCACGGAGTCCGTGCT | 0.006595 | –
cr295 (nucleic acid, listed as DNA, chemistry not fully specified) guide: GTTTAAGAGCTAAGCTGGAAACAGCATAGCAAGGTTAAATAAGGCTAGTCCGTTATCAACTTGAAAAAGTGGGACCGAGTCGGTCCT | 0.008268 | –
cr778 (nucleic acid, listed as DNA, chemistry not fully specified) guide: GTTTAAGAGCTAAGCTGGAAACAGCATAGCAAGTTTAAATAAGGCTAGTCGGTTATCAACTTGAAAAAGTGGCACCGAGTCGGTGCT | 0.0072 | –
cr415 (nucleic acid, listed as DNA, chemistry not fully specified) guide: GTTTAAGAGCTAAGCTGGAAACAGCATAGCAAGTTTAAATAAGGCTAGTCCCTTATCAACTTGAAATAGTGGCACCGAGTCGGTGCT | 0.007281 | –
cr281 (nucleic acid, listed as DNA, chemistry not fully specified) guide: GTTTAAGAGCTAAGCTGGAAACAGCATAGCAAGTTTAAATAAGGCTAGTCCGTTATCAACTTGAAAAAGTGGCTGGCAGTCCGAGCT | 0.006802 | –
cr615 (nucleic acid, listed as DNA, chemistry not fully specified) guide: GTTTAAGAGCTAAGCTGGAAACAGCATAGCAAGTTTAAATAAGGCTAGTCCGTTATCAACTTGAAAAAGTGCGTGCGAGTCGGAGGT | 0.006333 | –
cr174 (nucleic acid, listed as DNA, chemistry not fully specified) guide: GTTTAAGAGCTAAGCTGGAAACAGCATACCAAGTTTAAATAAGGCTAGGCCGTTATCAACTTGAAAAAGTGGCACCGATTCGGTGCT | 0.006669 | –
cr092 (nucleic acid, listed as DNA, chemistry not fully specified) guide: GTGTAGGAGCTAAGCTGGAAACAGCATAGCAAGTTTAAATAAGGCTAGTCCGTTATCAACTTGAAAAAGTGGCACCGAGTCGGTGCT | 0.006875 | –
cr137 (nucleic acid, listed as DNA, chemistry not fully specified) guide: GTTTAAGAGCTAAGCTGGAAACAGCATAGCAAGTTTAAATAGGGCTAGTCCTTTATCAACTTGCAAAAGTGGCACCGAGTCGGTGCT | 0.008516 | –
cr902 (nucleic acid, listed as DNA, chemistry not fully specified) guide: GTTTAAGAGCTAAGCTGGAAACAGCATAGCAAGTTTAAATAAGGCTAGTCCGTTATCAACTTGAAAAAGTGACACCGAGTCGGTGTT | – | 1.031
cr744 (nucleic acid, listed as DNA, chemistry not fully specified) guide: GTTTAAGAGCTAAGCTGGAAACAGCATAGCAAGATTAAATCAGGCTAGTCCGTTATCAACTTGTAAAAGTGGCACCGAGTCGGTGCT | 0.006349 | –
cr352 (nucleic acid, listed as DNA, chemistry not fully specified) guide: GTTTAAGAGCTAAGCTGGAAACAGCATAGCAAGTTTAAATAAGGCTAGTCCGTTATCACCTTGAAAAAGTGGCACCGAGTCGGTGCT | – | 1.031
cr883 (nucleic acid, listed as DNA, chemistry not fully specified) guide: GTTTAAGAGCTAAGCTGGAAACAGCATAGCAAGTTTAAATAGGGCTAGTCGGTTATCAACTTGAAAAAGTGGCACCGAGTCGGTGCT | 0.006975 | –
cr339 (nucleic acid, listed as DNA, chemistry not fully specified) guide: GTTTAAGAGCTAAGCTGGAAACAGCATAGCAAGTTTAAATAACCCTAGTGGGTTATCAACTTGAAAAAGTGGCACCGAGTCGGTGCT | 0.00717 | –
cr807 (nucleic acid, listed as DNA, chemistry not fully specified) guide: GTTTAAGAGCTAAGCTGGAAACAGCATAGCAAGTTTAAATTAGGCTAGTCCGTTATCAACTTGAAAAAGTGGCACCGTGTCGGTGCT | 0.00776 | –
cr518 (nucleic acid, listed as DNA, chemistry not fully specified) guide: GTTTAAGAGCTAAGCTGGAAACAGCATAGCAATTTTAAATGAGGCTAGTCCGTTATCAACTTGAAAAAGTGGCACCGAGTCGGTGCT | 0.006889 | –
cr648 (nucleic acid, listed as DNA, chemistry not fully specified) guide: GTTTAAGAGCTAAGCTGGAAACAGCATAGCAACTTTAAATAAGTCTAGTACGTTATCAACTTGAAAAAGTGGCACCGAGTCGGTGCT | 0.008305 | –
cr499 (nucleic acid, listed as DNA, chemistry not fully specified) guide: GTTTAAGAGCTAAGCTGGAAACAGCATAGCAACTTTAAATAAGGCTAGTCCGATATCAACTTGAAAAAGTGGCACCGAGGCGGTGCT | 0.007257 | –
cr463 (nucleic acid, listed as DNA, chemistry not fully specified) guide: GTTTAAGAGCTAAGCTGGAAACAGCATAGCAAGTTTAAATAACGCTAGTCGGTTATCACCTTGAAAAAGGGGCACCTAGTAGGTGCT | 0.006799 | –
cr455 (nucleic acid, listed as DNA, chemistry not fully specified) guide: GTTTAAGAGCTAAGCTGGAAACAGCATAGCAAGTTTAAATAAGGCTAGTCCGTTATCAATTGGAAACAATGGCACCGAGTCGGTGCT | – | 1.031
cr967 (nucleic acid, listed as DNA, chemistry not fully specified) guide: GTTTAAGAGCTAAGCTGGAAACAGCATAGCAAGTTTAAATAACGCTAGTCGGTTATCAACTTGAAAAAGTGGAACCAAGTTGGTTCT | 0.006446 | –
cr160 (nucleic acid, listed as DNA, chemistry not fully specified) guide: GTTTAAGAGCTAAGCTGGAAACAGCATAGCAATCTTAAATAAGGCTAGTCCGTTATCAACTTGAAAAAGTGGCACCGAGTCGGTGCT | 0.007879 | –
cr436 (nucleic acid, listed as DNA, chemistry not fully specified) guide: GTTTAAGAGCTAAGCTGGAAACAGCATAGCAAGGTTAAATAAGGCTAGTCCGTTATCATCTTGAAAAAGAGGCACCGAGTCGGTGCT | 0.008129 | –
cr512 (nucleic acid, listed as DNA, chemistry not fully specified) guide: GTTTAAGAGCTAAGCTGGAAACAGCATAGCAAGGTTAAATAAGCCTAGTGCGTTATCAACTTGAAAAAGTGGCACCGAGTCGGTGCT | 0.007414 | –
cr376 (nucleic acid, listed as DNA, chemistry not fully specified) guide: GTTTAAGAGCTAAGCTGGAAACAGCATAGCAACTTTAAATAAGGCTAGTCCGTTATCAACTTGAAAAAGTGGCACGGAGTCCGTGCT | 0.006963 | –
cr664 (nucleic acid, listed as DNA, chemistry not fully specified) guide: GTTTAAGAGCTAAGCTGGAAACAGCATAGCAACCTTAAATAAGGCTAGTCCGTTATCAACTTGAAAAAGTGGCACCGAGTCGGTGCT | 0.007435 | –
cr247 (nucleic acid, listed as DNA, chemistry not fully specified) guide: GTTTAAGAGCTAAGCTGGAAACAGCATAGCAATTTTAAATAAGGCTAGTCCGTTATCAACTTGAAAAAGTAGCACCGAGTCGGTGCT | 0.007159 | –
